Test [1] deals with T1, human CD47 expressed on cells (CD47 expressing CHO cells, Jurkat, HL60, DLD1, Raji) (human, UniProt Q08722 19-292).
T1 construct: also called CHO-CD47; IAP
The experiment in a line: flow cytometry on human platelets, MFI.

Test [2] has as its target T1, human CD47 expressed on cells (CD47 …). Nature of the test: flow cytometry on human red blood cells, MFI.
For test [3], the target named is T2, CD47 on monkey RBC (Macaca fascicularis, UniProt A0A2K5X523).
T2 construct: native, on red blood cells; also called cynomolgus monkey red blood cells expressing CD47
The experiment in a line: flow cytometry on cynomolgus monkey red blood cells expressing CD47, MFI.

Test [4] deals with T1, human CD47 expressed on cells (CD47 …). The experiment in a line: flow cytometry blocking assay on Raji cells, SIRPα is the blocked ligand, MFI.
For test [5] the target is unchanged. The experiment in a line: flow cytometry on DLD1 cells, IgG, frequency.
For test [6] the target is unchanged. The experiment in a line: IC50 (nM) MFI as grade, blocking biotinylated SIRPa-Fc binding to DLD1 cells; legend +: >20 nM.
Test [7] has the same target. The experiment in a line: IC50 (nM) Frequency as grade, blocking biotinylated SIRPa-Fc binding to DLD1 cells; legend +++: <1 nM.
Test [8] shares this target. The experiment in a line: EC50 (nM) as grade, flow cytometry, Fab on HL60 cells; legend +++: <1 nM.
For test [9] the target is unchanged. Nature of the test: EC50 (nM) as grade, flow cytometry, Fab on DLD1 cells; legend ++: >5 nM and <60 nM.
For test [10], the target named is T3, biotin labelled polyhistidine tagged CD47 protein (Novoprotein, Cat#321) (human, UniProt Q08722 19-139, biotin labelled (site not stated)).
T3 construct: Bought protein; also called biotinylated CD47; biotinylated human CD47 protein; not shown: polyhistidine tag
The experiment in a line: IC50 (nM) as grade, Fab blocking biotinylated CD47 binding to SIRPα-CHO cells; legend ++: >10 nM and <65 nM.

Test [11] addresses T4, CD47 protein (construct not stated; SPR antigen, CD47 coated ELISA plates) (Homo sapiens (Human), UniProt Q08722 19-139, limits assumed).
T4 construct: also called the antigen
The experiment in a line: SPR (Biacore T100), affinity (nM) as grade; legend +: >10 nM and <40 nM.

Test [12] addresses T1, human CD47 expressed on cells (CD47 …). Nature of the test: EC50 (nM) as grade, binding on Jurkat cells; legend +++: >0.05 nM and <1 nM.
Test [13] shares this target. Nature of the test: EC50 (nM) as grade, binding on CHO-CD47 cells; legend +++: >0.05 nM and <1 nM.
Test [14] has as its target T5, CHO/mCD47-GFP (mouse, UniProt Q61735).
T5 construct: on the cell surface; also called mouse CD47 expressed on CHO cells; CHO cell expressing mouse CD47
T5 sequence (receptor, looked up): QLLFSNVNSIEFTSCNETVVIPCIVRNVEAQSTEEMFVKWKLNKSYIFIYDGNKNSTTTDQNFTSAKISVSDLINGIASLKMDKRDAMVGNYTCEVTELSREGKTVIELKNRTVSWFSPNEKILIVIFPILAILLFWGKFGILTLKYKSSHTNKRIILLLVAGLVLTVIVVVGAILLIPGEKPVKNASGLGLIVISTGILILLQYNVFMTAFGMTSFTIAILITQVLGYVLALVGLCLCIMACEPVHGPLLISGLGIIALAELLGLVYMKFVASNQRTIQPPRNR
The experiment in a line: flow cytometry on CHO cells expressing mouse CD47-GFP, binding percentage.

The target in test [15] is T6, human CD47-Fc protein (Novoprotein, Cat#CG18) (human, UniProt Q08722 19-139).
T6 construct: Bought protein; also called CD47-hFc; hCD47-hFc fusion protein; not shown: human IgG Fc of the bought fusion protein
The experiment in a line: IC50 (nM) as grade, neutralizing ELISA, CD47-hFc on SIRPα coated plate; legend ++++: <8 nM.

Test [16] addresses T1, human CD47 expressed on cells (CD47 …). Nature of the test: flow cytometry on human red blood cells, donor 2, MFI; EC50 (nM) table beside the legend.
The target in test [17] is T6, human CD47-Fc protein (Novoprotein, …). The experiment in a line: IC50 (nM) as grade, blocking of soluble CD47 binding to SIRPα-expressing CHO cells; legend ++: >1 nM and <10 nM.

B1: H-ABU41-IgG4-P (antibody)
light chain: DVQITQSPSSLSASVGDRVTITCRASKNIGKYLAWFQQKPGKTNKLLIYSGSTLQSGIPSRFSGSGSGTDFTLTISSLQPEDFATYYCQQHNEYPYTFGGGTKVEIK
heavy chain: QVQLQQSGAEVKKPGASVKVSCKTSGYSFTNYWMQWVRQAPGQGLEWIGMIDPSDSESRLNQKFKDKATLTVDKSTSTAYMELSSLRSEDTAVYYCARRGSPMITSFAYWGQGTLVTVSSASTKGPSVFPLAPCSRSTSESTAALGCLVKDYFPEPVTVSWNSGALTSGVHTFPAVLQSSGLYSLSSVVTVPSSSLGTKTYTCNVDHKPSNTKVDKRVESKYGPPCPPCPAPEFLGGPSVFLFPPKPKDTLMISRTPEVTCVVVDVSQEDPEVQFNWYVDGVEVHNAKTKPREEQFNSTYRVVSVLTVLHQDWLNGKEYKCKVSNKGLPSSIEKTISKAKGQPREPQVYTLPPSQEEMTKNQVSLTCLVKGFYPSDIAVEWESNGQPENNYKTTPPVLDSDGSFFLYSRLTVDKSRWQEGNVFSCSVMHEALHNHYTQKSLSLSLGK
B1: the “EC50 (read off the curve)” value in [1] is roughly 2 nM; in [2], roughly 4 nM; in test [3], roughly 0.1 µg/mL. Moreover, the “IC50 (read off the curve)” value in test [4] is roughly 5 nM.

B2: H-ABU41-IgG4-PE (antibody)
light chain: DVQITQSPSSLSASVGDRVTITCRASKNIGKYLAWFQQKPGKTNKLLIYSGSTLQSGIPSRFSGSGSGTDFTLTISSLQPEDFATYYCQQHNEYPYTFGGGTKVEIK
heavy chain: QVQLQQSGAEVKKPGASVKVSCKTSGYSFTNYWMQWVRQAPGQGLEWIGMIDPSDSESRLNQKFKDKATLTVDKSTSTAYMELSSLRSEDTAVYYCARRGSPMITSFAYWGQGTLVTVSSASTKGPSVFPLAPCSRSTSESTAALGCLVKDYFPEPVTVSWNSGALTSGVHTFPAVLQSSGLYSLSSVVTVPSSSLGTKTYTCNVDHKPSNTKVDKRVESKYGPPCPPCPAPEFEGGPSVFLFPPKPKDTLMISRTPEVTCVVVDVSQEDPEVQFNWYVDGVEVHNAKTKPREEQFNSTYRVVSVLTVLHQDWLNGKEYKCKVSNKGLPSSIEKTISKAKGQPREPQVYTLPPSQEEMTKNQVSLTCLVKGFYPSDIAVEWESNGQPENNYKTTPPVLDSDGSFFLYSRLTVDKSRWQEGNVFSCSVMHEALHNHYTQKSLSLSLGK
Consider B2, for which the “EC50 (read off the curve)” value in test [1] was roughly 2 nM; in test [2], roughly 4 nM; in [3] it was roughly 0.1 µg/mL. Moreover, in test [4], the “IC50 (read off the curve)” value is roughly 3 nM.

B3: ABU24 (IgG, chimeric version of the Fab) (antibody, V domains shown)
VH: EVQLQQPGTELVKPGASVKLSCKASGYTFTSYWMHWVKQRPGQGLEWIGNVVPNNDGTNYNEKFRNKATLTVDKSSSTAYMQLSSLTSEDSAVYYCAVTYFAYWGQGTLVTVSA
VL: DAVVTQESALTTSPGETVTLTCRSSTGAVSTSNYANWVQEKPDHLFTGLIGGTNNRAPGVPARFSGSLIGDKAALTITGAQTEDEAIYFCALWYSNHWVFGGGTKLTVL
For the molecule B3, the “EC50 (read off the curve)” value in [5] is roughly 10 nM. The IC50 is greater than 20 nM in [6] and less than 1 nM in test [7].

B4: ABU40 (IgG, chimeric version of the Fab) (antibody, V domains shown)
VH: EVQLQQPGTELVKPGASVKLSCKASGYSFTTYWMHWVKQRPGQGLEWIGNINPSSGDSHYNEKFKSKATLTVDKSSSTAYMQLNSLTSEDSAVYYCARDYYGAYWGHGTLVTVSA
VL: DIQMTQSPASLSASVGETVTITCRASENIYSYLAWYQQKQGKSPQLLVYNAKTLAEGVPSRFSGSGSGTQFSLKINSLQPEDFGSYYCQHHYGTPLTFGAGTKLELK
Turning to B4, in test [5], the “EC50 (read off the curve)” value is roughly 7 nM. The IC50 was greater than 20 nM in test [6] and less than 1 nM in test [7].

B5: ABU8 (Fab) (Fab, V domains shown)
VH: EVQLQQSGTELVKPGASVKLSCKASGYTFISYWMHWVKQRPGQGLEWIGNINPSSGNTNYNEKFKTKATLTVDKSSSTAYMQLSSLTSEDSAVYYCVRDYYGNYWGQGTTVTVSS
VL: DIQMTQSPASLSASVGETVTITCRASENIYSYLAWYQQKQGKSPQLLVYNAKTLAEGVPSRFSGSGSGTQFSLKIKSLQPEDFGSYYCQHHYGTPLTFGGGTKLELK
As to B5, the figures for the EC50 in [8] and in [9] were less than 1 nM and 5 to 60 nM, respectively. In test [10], the IC50 was in the range of 10 to 65 nM.

B6: ABU5 (antibody, V domains shown)
VH: QVQLQQPGAELVKPGASVKMSCKASGYTFTNYWIAWVKRRPGQGLEWIGDFYPGNTSTNYNEKFKTKATLTIDTSSSTAYMQLSSLTSEDSAVYYCARRGRGGSSYWGQGTTLTVSS
VL: DVLMTQTPLSLPVSLGEQASISCRSSQSIVHSNGNTYLEWYLQKPGQSPKLLIYRVANRFSGVPDRFSGSGSGTDFTLKISRVEAEDLGVYYCFQGSHVPWTFGGGTKLEIK
notes: Murine hybridoma monoclonal antibody; also called ABUS [sic]
Take B6: the “Affinity by SPR” value in [11] lay within 10 to 40 nM. Moreover, the EC50 is 0.05 to 1 nM in test [12], 0.05 to 1 nM in test [13] and 0.86 nM in [16]. Besides, the binding result in test [14] was “no binding (tested: about 0.4 ug/ml)”. Moreover, the IC50 was less than 8 nM in test [15] and 1 to 10 nM in test [17].
